Changes are numbered by the printed parent chain. Like-named read-outs stand apart in the source and are kept apart here.

Usually Kd stands for the free concentration of one partner at which half of the binding sites on the other are occupied at equilibrium, for simple one-to-one binding.

What all share (test): SPR
For orientation: SPR reads the build-up and loss of mass on a sensor chip optically.

One assay addresses T1, mouse FcγRI (mouse, UniProt P26151).
T1 chain: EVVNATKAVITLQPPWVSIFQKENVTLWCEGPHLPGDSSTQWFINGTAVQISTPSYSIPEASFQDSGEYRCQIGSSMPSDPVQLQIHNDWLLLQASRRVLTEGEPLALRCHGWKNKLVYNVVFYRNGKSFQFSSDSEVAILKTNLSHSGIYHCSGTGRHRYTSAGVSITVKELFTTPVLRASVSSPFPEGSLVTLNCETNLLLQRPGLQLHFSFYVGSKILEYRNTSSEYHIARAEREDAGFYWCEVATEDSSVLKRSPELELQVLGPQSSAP

The target of the next assay is T2, mouse FcγRIV (mouse, UniProt A0A0B4J1G0).
T2 chain: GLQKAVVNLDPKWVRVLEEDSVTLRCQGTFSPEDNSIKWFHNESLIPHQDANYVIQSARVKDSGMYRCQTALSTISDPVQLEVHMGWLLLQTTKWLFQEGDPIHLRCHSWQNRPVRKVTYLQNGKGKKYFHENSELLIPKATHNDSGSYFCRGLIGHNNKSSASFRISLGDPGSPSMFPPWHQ

Assay [1] deals with T3, human FcγRIa (human, UniProt P12314).
T3 chain: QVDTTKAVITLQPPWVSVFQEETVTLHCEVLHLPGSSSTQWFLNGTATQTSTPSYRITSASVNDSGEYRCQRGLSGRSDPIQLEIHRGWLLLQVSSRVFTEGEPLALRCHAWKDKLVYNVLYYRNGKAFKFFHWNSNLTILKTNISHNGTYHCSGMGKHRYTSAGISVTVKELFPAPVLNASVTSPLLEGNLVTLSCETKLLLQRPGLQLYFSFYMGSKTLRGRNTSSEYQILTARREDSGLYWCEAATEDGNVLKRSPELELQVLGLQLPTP

The target of assay [2] is T4, human FcγRIIb (human, UniProt P31994).
T4 chain: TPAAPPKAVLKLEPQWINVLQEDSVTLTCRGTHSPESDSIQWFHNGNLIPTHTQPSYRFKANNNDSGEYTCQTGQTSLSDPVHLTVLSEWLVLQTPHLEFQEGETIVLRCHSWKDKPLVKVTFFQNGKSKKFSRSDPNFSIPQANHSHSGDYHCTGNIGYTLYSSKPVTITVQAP

Assay [3] concerns the target T3, human FcγRIa.
Assay [4] concerns the target T4, human FcγRIIb.
The target of assay [5] is T5, human FcγRIIa R131 (human, UniProt P12318).
T5 chain: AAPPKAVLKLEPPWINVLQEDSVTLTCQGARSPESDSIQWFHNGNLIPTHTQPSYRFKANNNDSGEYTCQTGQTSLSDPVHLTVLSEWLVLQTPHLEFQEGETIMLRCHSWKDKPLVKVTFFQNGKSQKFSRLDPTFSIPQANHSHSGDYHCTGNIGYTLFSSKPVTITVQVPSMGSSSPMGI

Assay [6] addresses T3, human FcγRIa.
The target of assay [7] is T4, human FcγRIIb.
For assay [8], the target named is T5, human FcγRIIa R131.

B1: VH3/L(WT)-mIgG1 (antibody)
chain 1: QVQLQESGPGLVKPSETLSLTCAVSGHSISHDHAWSWVRQPPGEGLEWIGFISYSGITNYNPSLQGRVTISRDNSKNTLYLQMNSLRAEDTAVYYCARSLARTTAMDYWGEGTLVTVSSAKTTPPSVYPLAPGSAAQTNSMVTLGCLVKGYFPEPVTVTWNSGSLSSGVHTFPAVLQSDLYTLSSSVTVPSSTWPSETVTCNVAHPASSTKVDKKIVPRDCGCKPCICTVPEVSSVFIFPPKPKDVLTITLTPKVTCVVVDISKDDPEVQFSWFVDDVEVHTAQTQPREEQFNSTFRSVSELPIMHQDWLNGKEFKCRVNSAAFPAPIEKTISKTKGRPKAPQVYTIPPPKEQMAKDKVSLTCMITDFFPEDITVEWQWNGQPAENYKNTQPIMDTDGSYFVYSKLNVQKSNWEAGNTFTCSVLHEGLHNHHTEKSLSHSPGK
chain 2: not shown
B1: the binding result in the assay with mouse FcγRI and with mouse FcγRIV was “no binding” throughout.

B2: VH3/L(WT)-mIgG1-mF46 (antibody)
chain 1: B1 chain 1 with S235D, A323D
chain 2: not shown
Turning to B2, the binding result with mouse FcγRI and in the assay with mouse FcγRIV was “no binding” in each case.

B3: VH3/L(WT)-mIgG1-mF44 (antibody)
chain 1: B1 chain 1 with A323D
chain 2: not shown
As for B3, the binding result with mouse FcγRI and with mouse FcγRIV was “no binding” in each case.

B4: IL6R-BP267 (antibody)
chain 1: QVQLQESGPGLVKPSETLSLTCAVSGHSISHDHAWSWVRQPPGEGLEWIGFISYSGITNYNPSLQGRVTISRDNSKNTLYLQMNSLRAEDTAVYYCARSLARTTAMDYWGEGTLVTVSSASTKGPSVFPLAPSSKSTSGGTAALGCLVKDYFPEPVTVSWNSGALTSGVHTFPAVLQSSGLYSLSSVVTVPSSSLGTQTYICNVNHKPSNTKVDKKVEPKSCDKTHTCPPCPAPDLLGDDSVFLFPPKPKDTLMISRTPEVTCVVVDVSEEDGEVKFNWYVDGVEVHNAKTKPREEQYNSTYRVVSVLTVLHQDWLNGKEYKCKVSNKALPAPIEKTISKAKGQPREPQVYTLPPSRDELTKNQVSLTCLVKGFYPSDIAVEWESNGQPENNYKTTPPVLDSDGSFFLYSKLTVDKSRWQQGNVFSCSVMHEALHNHYTQESLSLSP
chain 2: not shown
In the assay with human FcγRIa [1], B4 gave a Kd of 4 nM. This counts as single-digit nanomolar.

B5: IL6R-BP464 (antibody)
chain 1: B4 chain 1 with S269A, A332R, P398Y
chain 2: not shown
B5 showed a Kd with human FcγRIIb [2] of 4 nM. This lies in the single-digit nanomolar range.

B6: IL6R-BP447 (antibody)
chain 1: B4 chain 1 with S269A, A332R, P398A
chain 2: not shown
In the assay with human FcγRIa [3], B6 returned a dissociation constant (Kd) of 0.9 nM.

B7: IL6R-BP468 (antibody)
chain 1: B4 chain 1 with E270D, Y298D, A332R, K336T
chain 2: not shown
In the assay with human FcγRIIb [4], B7 had a Kd of 40 nM. In other words, the double-digit nanomolar range.

B8: IL6R-BP469 (antibody)
chain 1: B4 chain 1 with E270D, Y298D, A332R, E335S
chain 2: not shown
On to B8, for which the dissociation constant Kd in the assay with human FcγRIIa R131 [5] was determined as 600 nM.

B9: IL6R-BP384 (antibody)
chain 1: B4 chain 1 with E270D, Y298D, A332R, K336R
chain 2: not shown
The molecule B9 gave a Kd with human FcγRIa [6] of 3 nM.

B10: IL6R-BP455 (antibody)
chain 1: B4 chain 1 with S269A, A332R, P398L
chain 2: not shown
B10 came in with an equilibrium dissociation constant (Kd) in the assay with human FcγRIIb [2] of 4 nM. This lies in the single-digit nanomolar range.

B11: IL6R-BP350 (antibody)
chain 1: B4 chain 1 with S269E
chain 2: not shown
Molecule B11 displayed an equilibrium dissociation constant (Kd) in the assay with human FcγRIIb [7] of 100 nM.

B12: IL6R-BP367 (antibody)
chain 1: B4 chain 1 with E271D
chain 2: not shown
For B12, in the assay with human FcγRIIb [7], binding was put at a Kd of 100 nM.

B13: IL6R-BP223 (antibody)
chain 1: B4 chain 1 with D235E, L236Y, E270D, K328A, A332R
chain 2: not shown
B13 showed a dissociation constant Kd with human FcγRIIa R131 [8] of 600 nM.

B14: IL6R-BP456 (antibody)
chain 1: B4 chain 1 with S269A, A332R, P398M
chain 2: not shown
B14 displayed a Kd with human FcγRIa [3] of 0.6 nM.

These data come from patent US11827699 (dated 2023).
